Measured values published in publication PMC8857205.

Molecular target: Glu14 (UniProt position 14, GAILAEVIGTT)
Experiment: NMR
[1] = TPP+-bound, cited from earlier work

Substance | pKa [1] | pKa (45 °C, 20 mM NaCl plus buffer salts (total ionic strength not stated), 50 mM sodium acetate, 50 mM MOPS, 50 mM MES, 50 mM bicine, 2 mM TCEP, 0.01% DSS, F4-TPP+-bound (saturated), folded dimer in bicelles)
EmrE (multidrug transporter, small multidrug resistance family), wild type (Escherichia coli) | 6.8 ± 0.1 | 
S64V-EmrE (Escherichia coli; S64V) | 7.0 ± 0.1 | 6.9 ± 0.1
